Source: patent US20220041746A1 (Sanofi, published 2022)
Values joined by “and” are separate entries in the source; they are usually repeats but may differ in a detail not shown here. Equal values may be shown once. Values belong to the binder of their own block, whether it stands above or below them.

How the values were obtained:
[1] = biological target: T1, recombinant human CD38 (SPR of Example 4) (human, UniProt P28907 45-300, limits assumed); assay: SPR (column 'KD value against rec. protein by SPR (nM)'); second value of the pair, taken for CD3low
[2] = biological target: T2, human CD3 (Cambridge Biologics LLC Cat #03-01-0051) (human, UniProt P07766 23-126; P09693 23-116); assay: ELISA on coated hCD3 γε IgG4; the arrow ends on the second curve from the right, which carries the small markers
T2 construct: the reagent may hold further CD3 chains
Experimental: (§1) The binding properties of the purified antibodies were analyzed either using ELISA or SPR methods. For ELISA, corresponding antigens for each binding site in the trispecific binding protein were used to coat a 96-well Immuno Plate (Nunc 439454, Thermo Fisher Scientific) overnight at 4° C. using 2 μg/ml each antigen m PBS(pH7.4). The coated plate was blocked using 5% skim milk 12% BSA in PBS for one hour at RT, followed by washing with PBS+[…] three times (Aqua Max 400, Molecular Devices). Serial dilution of antibodies (trispecific and control Abs) were prepared and added onto the ELISA plates (100 μl/well in duplicate), incubated at RT for one hour, followed by washing 5 times with PBS+0.25% Tween 20.
(§2) The reaction was terminated by adding 50 μl 1M H₂SO₄, and OD₄₅₀ was measured using SpectraMax M5 (Molecular Devices) and analyzed using SoltMax Pro6.3 software (Molecular Devices). The final data was transferred to GraphPad Prism software (GraphPad Software, CA. USA), and plotted as shown. EC50 was calculated using the same software.

[3] = biological target: human CD28 (SPR of Example 4) (human, UniProt P10747 19-152, limits assumed); assay: SPR; KD rounded to an integer; second value of the pair, taken for CD3low
Experimental: (§3) Surface regenerate was conducted by injecting 10 mM Glycine-HCl pH 2.5 for 60 sec at 30 μl/min. […] Equilibrium dissociation constant (KD) was calculated using association rate constant (kₒₙ) and dissociation rate constant (koff).

[4] = biological target: T1, recombinant human CD38 (SPR of Example …); assay: as above
Experimental: as §3

[5] = biological target: T3, human CD38 expressed on the cell surface (human, UniProt P28907 1-300); assay: flow cytometry, 'Apparent KD value against rec. cells by FACS (nM)'; single value of the mid/low row, equal to the EC50 of the CD3mid protein in FIG. 6B
T3 construct: whole, on cells; also called hCD38-expressing cells; huCD38
Experimental: (§4) The recombinant cell line was described by J. Deckket et al. 2014 Clin. Cancer Res 20:4574-4583. […] Antibody binding was evaluated after centrifugation and resuspension of cells by adding 200 μl/well PBS 1% BSA and read using Guava® easyCyte™ 8HT Flow Cytometry System. Apparent KD and EC50 values were estimated using BIOST®T-BINDING and BIOST®T-SPEED software, respectively.

[6] = biological target: T1, recombinant human CD38 (SPR of Example …); assay: SPR (column 'KD value against rec. protein by SPR (nM)'); first value of the pair, taken for CD3mid
[7] = biological target: human CD38 (Cambridge Biologics LLC Cat #03-01-0369) (human, UniProt P28907 43-300); assay: ELISA on coated hCD38-His
Experimental: as §1, §2

[8] = biological target: T1, recombinant human CD38 (SPR of Example …); assay: SPR; KD rounded to an integer; first value of the pair, taken for CD3mid
[9] = biological target: T3, human CD38 expressed on the cell surface; assay: flow cytometry on 300.19 huCD38 cells (PréB hCD38)
Experimental: as §4

[10] = biological target: T4, cynomolgus monkey CD38 expressed on the cell surface (cynomolgus monkey, UniProt Q5VAN0 1-301); assay: flow cytometry on 300.19 cynoCD38 cells (PréB cCD38)
T4 construct: whole, on cells; also called cCD38-expressing cells
Experimental: as §4

hCD38-his (SEQ ID NO: 2) [11] = biological target: T5, hCD38-his (SEQ ID NO: 2) (human, UniProt P28907 45-300); assay: ELISA on hCD38::Histag
T5 construct: His-tagged soluble protein derived from isoform A; also called human CD38-histag; hCD38::Histag

[12] = biological target: T4, cynomolgus monkey CD38 expressed on the …; assay: flow cytometry (FACS) on 300.19 PreB cynoCD38 cells [Cont.]
Experimental: as §4, with “Clin” for “Clin.”, “μL/well” for “μl/well”, “easvCyte™” for “easyCyte™”, “BIOST@T-BINDING” for “BIOST®T-BINDING”, “BIOST@T-SPEED” for “BIOST®T-SPEED”

[13] = biological target: T4, cynomolgus monkey CD38 expressed on the …; assay: flow cytometry (column FACS EC50 nM, cyno)
Experimental: as §4, with “Clin” for “Clin.”, “μL/well” for “μl/well”, “easvCyte™” for “easyCyte™”, “BIOST@T-BINDING” for “BIOST®T-BINDING”, “BIOST@T-SPEED” for “BIOST®T-SPEED”

cCD38-his (SEQ ID NO: 4) [14] = biological target: T6, cCD38-his (SEQ ID NO: 4) (cynomolgus monkey, UniProt Q5VAN0 46-301); assay: ELISA on cynoCD38::Histag [Cont.]
T6 construct: His-tagged soluble protein; also called cyno CD38-histag; cynoCD38::Histag

cCD38-his (SEQ ID NO: 4) [15] = biological target: T6, cCD38-his (SEQ ID NO: 4); assay: SPR, mAb captured via anti-human Fc, soluble CD38-his injected
Experimental: (§5) The binding properties of the anti-huCD38 mabs were evaluated using a BIAcore 2000 (BIAcore Inc., Uppsala, Ni). […] The surface was regenerated between injections using 30 μL of 50 mM NaOH-1 M NaCl. Individual sensorgrams wore analyzed using BIAsimulation software.

hCD38-his (SEQ ID NO: 2) [16] = biological target: T5, hCD38-his (SEQ ID NO: 2); assay: as above
Experimental: as §5

hCD38-his (SEQ ID NO: 2) [17] = biological target: T5, hCD38-his (SEQ ID NO: 2); assay: ELISA (column ELISA EC50 nM, hu)
[18] = biological target: T3, human CD38 expressed on the cell surface; assay: flow cytometry (FACS) on 300.19 PreB hCD38 cells
Experimental: as §4, with “Clin” for “Clin.”, “μL/well” for “μl/well”, “easvCyte™” for “easyCyte™”, “BIOST@T-BINDING” for “BIOST®T-BINDING”, “BIOST@T-SPEED” for “BIOST®T-SPEED”

[19] = biological target: T3, human CD38 expressed on the cell surface; assay: flow cytometry (column FACS EC50 nM, hu)
Experimental: as §4, with “Clin” for “Clin.”, “μL/well” for “μl/well”, “easvCyte™” for “easyCyte™”, “BIOST@T-BINDING” for “BIOST®T-BINDING”, “BIOST@T-SPEED” for “BIOST®T-SPEED”

[20] = biological target: T3, human CD38 expressed on the cell surface; assay: flow cytometry on preB::300.19 cells, apparent KD
Experimental: as §4, with “Clin” for “Clin.”, “μL/well” for “μl/well”, “easvCyte™” for “easyCyte™”, “BIOST@T-BINDING” for “BIOST®T-BINDING”, “BIOST@T-SPEED” for “BIOST®T-SPEED”

[21] = biological target: T4, cynomolgus monkey CD38 expressed on the …; assay: flow cytometry on preB::300.19 cells, apparent KD
Experimental: as §4, with “Clin” for “Clin.”, “μL/well” for “μl/well”, “easvCyte™” for “easyCyte™”, “BIOST@T-BINDING” for “BIOST®T-BINDING”, “BIOST@T-SPEED” for “BIOST®T-SPEED”

cCD38-his (SEQ ID NO: 4) [22] = biological target: T6, cCD38-his (SEQ ID NO: 4); assay: ELISA (column ELISA EC50 nM, cyno)
[23] = biological target: T2, human CD3 (Cambridge Biologics LLC Cat …); assay: ELISA on coated hCD3 γε IgG4; the arrow ends on the rightmost curve, which carries the triangles
Experimental: as §1, §2

Kd [1]: 6 nM
EC50 [2]: 0.491 nM
Kd [3]: 34 nM
Kd [4]: 6 nM
B1: CD38VH1×CD28cvn×CD3low IgG4 (other)
VH 1: QVQLVQSGAEVVKPGASVKVSCKASGYTFTSYAMHWVKEAPGQRLEWIGYIYPGQGGTNYNQKFQGRATLTADTSASTAYMELSSLRSEDTAVYFCARTGGLRRAYFTYWGQGTLVTVSS
VL 1: DIVLTQSPATLSLSPGERATISCRASQSVSSYGQGFMHWYQQKPGQPPRLLIYGASSRATGIPARFSGSGSGTDFTLTISPLEPEDFAVYYCQQNKEDPWTFGGGTKLEIK
VH 2: QVQLQESGPGLVKPSQTLSLTCTVSGFSLSDYGVHWVRQPPGKGLEWLGVIWAGGGTNYNPSLKSRKTISKDTSKNQVSLKLSSVTAADTAVYYCARDKGYSYYYSMDYWGQGTTVTVSS
VL 2: DIVLTQSPASLAVSPGQRATITCRASESVEYYVTSLMQWYQQKPGQPPKLLIFAASNVESGVPARFSGSGSGTDFTLTINPVEANDVANYYCQQSRKVPYTFGQGTKLEIK
VH 3: QVQLVESGGGVVQPGRSLRLSCAASGFTFTKAWMHWVRQAPGKGLEWVAQIKDKSNSYATYYADSVKGRFTISRDNSKNTLYLQMNSLRAEDTAVYYCRGVYYALSPFDYWGQGTLVTVSS
VL 3: DIVMTQTPLSLSVTPGQPASISCKSSQSLVHNNGNTYLSWYLQKPGQSPQLLIYKVSNRFSGVPDRFSGSGSGTDFTLKISRVEAEDVGVYYCGQGTQYPFTFGGGTKVEIK
notes: also called CD38VH1×CD28evn×CD3low IgG4

Kd [5]: 11 nM
Kd [6]: 4 nM
EC50 (read off the curve) [7]: ~3 nM
Kd [8]: 4 nM
EC50 [9]: 11 nM and 1.67 µg/mL
EC50 [10]: 17 nM and 2.53 µg/mL
B2: CD38VH1×CD28sup×CD3mid IgG4 (other)
VH 1: QVQLVQSGAEVVKPGASVKVSCKASGYTFTSYAMHWVKEAPGQRLEWIGYIYPGQGGTNYNQKFQGRATLTADTSASTAYMELSSLRSEDTAVYFCARTGGLRRAYFTYWGQGTLVTVSS
VL 1: DIVLTQSPATLSLSPGERATISCRASQSVSSYGQGFMHWYQQKPGQPPRLLIYGASSRATGIPARFSGSGSGTDFTLTISPLEPEDFAVYYCQQNKEDPWTFGGGTKLEIK
VH 2: QVQLVQSGAEVVKPGASVKVSCKASGYTFTSYYIHWVRQAPGQGLEWIGSIYPGNVNTNYAQKFQGRATLTVDTSISTAYMELSRLRSDDTAVYYCTRSHYGLDWNFDVWGKGTTVTVSS
VL 2: DIQMTQSPSSLSASVGDRVTITCQASQNIYVWLNWYQQKPGKAPKLLIYKASNLHTGVPSRFSGSGSGTDFTLTISSLQPEDIATYYCQQGQTYPYTFGQGTKLEIK
VH 3: QVQLVESGGGVVQPGRSLRLSCAASGFTFTKAWMHWVRQAPGKQLEWVAQIKDKSNSYATYYADSVKGRFTISRDDSKNTLYLQMNSLRAEDTAVYYCRGVYYALSPFDYWGQGTLVTVSS
VL 3: DIVMTQTPLSLSVTPGQPASISCKSSQSLVHNNANTYLSWYLQKPGQSPQSLIYKVSNRFSGVPDRFSGSGSGTDFTLKISRVEAEDVGVYYCGQGTQYPFTFGSGTKVEIK
notes: also called anti-CD38(VH1)×CD28(sup)×CD3(mid)

EC50 (hCD38-his (SEQ ID NO: 2) [11]): 0.16 nM
EC50 [12]: 1.31 nM
EC50 [13]: 1.31 nM
EC50 (cCD38-his (SEQ ID NO: 4) [14]): 0.15 nM
Kd (cCD38-his (SEQ ID NO: 4) [15]): 0.71 nM
koff (cCD38-his (SEQ ID NO: 4) [15]): 0.000129 s⁻¹
Kd (hCD38-his (SEQ ID NO: 2) [16]): 0.483 nM
koff (hCD38-his (SEQ ID NO: 2) [16]): 0.000283 s⁻¹
EC50 (hCD38-his (SEQ ID NO: 2) [17]): 0.16 nM
EC50 [18]: 0.78 nM and 0.117 µg/mL
EC50 [19]: 0.78 nM
Kd [20]: 0.78 nM
Kd [21]: 1.31 nM
EC50 (cCD38-his (SEQ ID NO: 4) [22]): 0.15 nM
B3: mAb3 (antibody, human IgG1, kappa, V domains shown)
VH: QVQLVQSGAEVVKPGASVKVSCKASGYTFTSFNMHWVKEAPGQRLEWIGYIYPGNGGTNYNQKFQGRATLTADTSASTAYMELSSLRSEDTAVYFCARTGGLRRAYFTYWGQGTLVTVSS
VL: DIVLTQSPATLSLSPGERATISCRASESVDSYGNGFMHWYQQKPGQPPRLLIYLASSRATGIPARFSGSGSGTDFTLTISPLEPEDFAVYYCQQNKEDPWTFGGGTKLEIKR
notes: also called antiCD38_C2-CD38-1_VH3-VL3

Kd [1]: 6 nM
EC50 [23]: 1.04 nM
EC50 (read off the curve) [7]: ~6 nM
Kd [3]: 4 nM
Kd [4]: 6 nM
B4: CD38VH1×CD28sup×CD3low IgG4 (other)
VH 1: QVQLVQSGAEVVKPGASVKVSCKASGYTFTSYAMHWVKEAPGQRLEWIGYIYPGQGGTNYNQKFQGRATLTADTSASTAYMELSSLRSEDTAVYFCARTGGLRRAYFTYWGQGTLVTVSS
VL 1: DIVLTQSPATLSLSPGERATISCRASQSVSSYGQGFMHWYQQKPGQPPRLLIYGASSRATGIPARFSGSGSGTDFTLTISPLEPEDFAVYYCQQNKEDPWTFGGGTKLEIK
VH 2: QVQLVQSGAEVVKPGASVKVSCKASGYTFTSYYIHWVRQAPGQGLEWIGSIYPGNVNTNYAQKFQGRATLTVDTSISTAYMELSRLRSDDTAVYYCTRSHYGLDWNFDVWGKGTTVTVSS
VL 2: DIQMTQSPSSLSASVGDRVTITCQASQNIYVWLNWYQQKPGKAPKLLIYKASNLHTGVPSRFSGSGSGTDFTLTISSLQPEDIATYYCQQGQTYPYTFGQGTKLEIK
VH 3: QVQLVESGGGVVQPGRSLRLSCAASGFTFTKAWMHWVRQAPGKGLEWVAQIKDKSNSYATYYADSVKGRFTISRDNSKNTLYLQMNSLRAEDTAVYYCRGVYYALSPFDYWGQGTLVTVSS
VL 3: DIVMTQTPLSLSVTPGQPASISCKSSQSLVHNNGNTYLSWYLQKPGQSPQLLIYKVSNRFSGVPDRFSGSGSGTDFTLKISRVEAEDVGVYYCGQGTQYPFTFGGGTKVEIK
